B1: PIDD DD (777-883) (domain or fragment, UniProt Q9HB75 777-883, looked up)
chain: LNLGDAETGFLTQSNLLSVAGRLGLDWPAVALHLGVSYREVQRIRHEFRDDLDEQIRHMLFSWAERQAGQPGAVGLLVQALEQSDRQDVAEEVRAVLELGRRKYQDS
notes: PIDD (p53-induced protein with a death domain), death domain, residues 777-883; also called PD-DD; PIDD death domain; source: E. coli BL21 (DE3) RILP, purified (Ni-NTA, size exclusion S-200)
B2: RAIDD DD (94-199), wild type (domain or fragment)
chain: not shown
notes: RAIDD (RIP-associated Ich-1/Ced-3 homologous protein with a death domain), death domain, residues 94-199; also called RD-DD; RAIDD death domain; source: E. coli BL21 (DE3) RILP, purified (Ni-NTA, size exclusion S-200)

Columns and labels:
[1] = biological target: T1, full-length RAIDD (1-199), wild type (UniProt P78560 1-199); assay: SEC; RAIDD (full length, DD or mutant) mixed with a molar excess of PIDD DD, 30 min at room temperature; Superdex 200 HR 10/30 in 20 mM Tris-HCl pH 8.0, 150 mM NaCl; fractions on SDS-PAGE, Coomassie; conditions: both partners purified
T1 construct: RAIDD, full length, residues 1-199 (CARD and DD); also called RD; wild-type full-length RAIDD; source: E. coli BL21 (DE3) RILP, purified (Ni-NTA, size exclusion S-200)
T1 sequence (P78560 whole entry, the tested form may be a part): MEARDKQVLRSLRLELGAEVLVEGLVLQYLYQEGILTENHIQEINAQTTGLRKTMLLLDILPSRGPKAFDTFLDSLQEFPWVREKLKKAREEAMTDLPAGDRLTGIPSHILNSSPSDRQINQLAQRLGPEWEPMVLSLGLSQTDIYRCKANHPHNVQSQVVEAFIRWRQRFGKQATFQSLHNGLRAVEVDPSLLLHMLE

PIDD DD (777-883) = biological target: B1; assay: as above; conditions: both partners purified

Binder | binding result [1] | binding result (PIDD DD (777-883))
B1 | binds | –
B2 | – | binds

From PMC6169973, “RAIDD mutations underlie the pathogenesis of thin lissencephaly (TLIS)” (PLoS ONE, 2018)
